Legend:
[1] = molecular target: human hair (hair keratin) (human); experiment: quantitative hair-binding test; His-tagged protein on 5 mg human hair, anti-polyHistidine peroxidase conjugate, TMB
[2] = molecular target: human hair (hair keratin) (human); experiment: quantitative hair-binding test; DENATURED KBD-B on 5 mg human hair, anti-polyHistidine peroxidase conjugate, TMB
[3] = molecular target: human skin (skin keratin) (human); experiment: quantitative skin-binding test on human keratinocytes in microtiter plates, anti-His antibody/TMB; value standardized to the surface
[4] = molecular target: human skin (skin keratin) (human); experiment: quantitative skin-binding test, after washing with 10% strength SDS; value standardized to the surface
[5] = molecular target: human hair (hair keratin) (human); experiment: quantitative hair-binding test; loss of A405 after 10% SDS relative to untreated hair
[6] = molecular target: human skin (skin keratin) (human); experiment: quantitative skin-binding test; loss of A405 after 10% SDS relative to untreated skin
[7] = molecular target: human hair (hair keratin) (human); experiment: quantitative hair-binding test; renatured KBD-B on 5 mg human hair, anti-polyHistidine peroxidase conjugate, TMB
[8] = molecular target: human hair (hair keratin) (human); experiment: quantitative hair-binding test on 5 mg human hair, anti-polyHistidine peroxidase/TMB; value standardized to the surface
[9] = molecular target: human hair (hair keratin) (human); experiment: quantitative hair-binding test, after washing with 10% strength SDS; value standardized to the surface

Binder	Absorption at 405 nm [1]	Absorption at 405 nm [2]	Absorption at 405 nm [3]	Absorption at 405 nm [4]	Relative absorption loss after 10% strength SDS treatment in % [5]	Relative absorption loss after 10% strength SDS treatment in % [6]	Absorption at 405 nm [7]	Absorption at 405 nm [8]	Absorption at 405 nm [9]
comparison Protein YaaD from B. subtilis (with His tag) (protein, UniProt P37527 1-294, looked up, not shown: small tags and cut ends) MAQTGTERVKRGMAEMQKGGVIMDVINAEQAKIAEEAGAVAVMALERVPADIRAAGGVARMADPTIVEEVMNAVSIPVMAKARIGHIVEARVLEAMGVDYIDESEVLTPADEEFHLNKNEYTVPFVCGCRDLGEATRRIAEGASMLRTKGEPGTGNIVEAVRHMRKVNAQVRKVVAMSEDELMTEAKNLGAPYELLLQIKKDGKLPVVNFAAGGVATPADAALMMQLGADGVFVGSGIFKSDNPAKFAKAIVEATTHFTDYKLIAELSKELGTAMKGIEISNLLPEQRMQERGW	0.088	–	–	–	–	–	–	–	–
KBD-B (SEQ ID No.: 166), keratin-binding domain B of human desmoplakin expressed from pQE30-KBD-B in E. coli (protein) MRGSHHHHHHGSACELEPHTGLLLLSVQKRSMSFQGIRQPVTVTELVDSGILRPSTVNELESGQISYDEVGERIKDFLQGSSCIAGIYNETTKQKLGIYEAMKIGLVRPGTALELLEAQAATGFIVDPVSNLRLPVEEAYKRGLVGIEFKEKLLSAERAVTGYNDPETGNIISLFQAMNKELIEKGHGIRLLEAQIATGGIIDPKESHRLPVDIAYKRGYFNEELSEILSDPSDDTKGFFDPNTEENLTYLQLKERCIKDEETGLCLLPLKEKKKQVQTSQKNTLRKRRVVIVDPETNKEMSVQEGVDLQPSLIS	–	0.254	0.93	0.185	86%	80%	1.59	–	–
KBD-D (SEQ ID No.: 168), keratin-binding domain D, H. sapiens plakophilin 1a with N-terminal histidine anchor (protein) MRGSHHHHHHGSACELGTMNHSPLKTALAYECFQDQDNSTLALPSDQKMKTGTSGRQRVQEQVMMTVKRQKSKSSQSSTLSHSNRGSMYDGLADNYNYGTTSRSSYYSKFQAGNGSWGYPIYNGTLKREPDNRRFSSYSQMENWSRHYPRGSCNTTGAGSDICFMQKIKASRSEPDLYCDPRGTLRKGTLGSKGQKTTQNRYSFYSTCSGQKAIKKCPVRPPSCASKQDPVYIPPISCNKDLSFGHSRASSKICSEDIECSGLTIPKAVQYLSSQDEKYQAIGAYYIQHTCFQDESAKQQVYQLGGICKLVDLLRSPNQNVQQAAAGALRNLVFRSTTNKLETRRQNGIREAVSLLRRTGNAEIQKQLTGLLWNLSSTDELKEELIADALPVLADRVIIPFSGWCDGNSNMSREVVDPEVFFNATGCLRNLSSADAGRQTMRNYSGLIDSLMAYVQNCVAASRCDDKSVENCMCVLHNLSYRLDAEVPTRYRQLEYNARNAYTEKSSTGCFSNKSDKMMNNNYDCPLPEEETNPKGSGWLYHSDAIRTYLNLMGKSKKDATLEACAGALQNLTASKGLMSSGMSQLIGLKEKGLPQIARLLQSGNSDVVRSGASLLSNMSRHPLLHRVMGNQVFPEVTRLLTSHTGNTSNSEDILSSACYTVRNLMASQPQLAKQYFSSSMLNNIINLCRSSASPKAAEAARLLLSDMWSSKELQGVLRQQGFDRNMLGTLAGANSLRNFTSRF	–	–	3.69	3.15	30%	15%	–	0.88	0.62

From US20090098074A1
